# Measured values from patent US20230250156A1.
# “And” between values parts separate entries of the source, which are not always exact repeats. Equal entries are not always repeated.
# Target: SARS-CoV-2 RBD protein (SARS-CoV-2) (UniProt P0DTC2)
substance,measurement,value
ACE2 Ig-TD Quad (ACE2(18-615) Ig-TD) (Fc fusion),IC50,450 pM and 449 pM
